Blank lines part the entries; values can stand above or below the molecule they belong to.
Legend:
[1] = target: T1, RrA (Rhodospirillum rubrum, UniProt Q2RMX1); assay: nanoDSF back-reflection, aggregation onset; type: binding; details: 20 mM ligand, 0.1 M Na-citrate pH 5.0, 0.2 M NaCl; 42.3 °C without ligand
T1 construct: gene Rru_A3730; full length, 172 residues, Lys149 natural variant (Glu149 in the first report); synthetic gene in pET15b, N-terminal His6 tag removed by TEV protease, expressed in E. coli BL21(DE3) RIPL; homotetramer, active site completed by Tyr21 and Asn26 of another protomer
T1 sequence (Q2RMX1 1-172): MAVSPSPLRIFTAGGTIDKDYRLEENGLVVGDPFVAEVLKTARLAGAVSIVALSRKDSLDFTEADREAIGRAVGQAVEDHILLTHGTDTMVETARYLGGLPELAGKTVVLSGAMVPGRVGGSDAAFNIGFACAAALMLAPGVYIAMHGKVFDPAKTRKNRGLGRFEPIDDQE

[2] = target: T2, RrA (Rhodospirillum rubrum, UniProt Q2RMX1, Y21F); assay: X-ray crystal structure, […] Å; type: binding; details: active site, three of four protomers; also 8up3 (co-purified L-Asp in some protomers)
T2 construct: gene Rru_A3730; full length, 172 residues, Lys149 natural variant (Glu149 in the first report); synthetic gene in pET15b, N-terminal His6 tag removed by TEV protease, expressed in E. coli BL21(DE3) RIPL; homotetramer, active site completed by Tyr21 and Asn26 of another protomer

[3] = target: RrA(K19E) (Rhodospirillum rubrum); assay: crystal structure; hanging drops, 293 K, protein 19-21 mg/mL in the standard buffer, with or without L-Asp; tetramer as a dimer of tight dimers, in the asymmetric unit or made by crystal symmetry
[4] = target: RrA(K19E) (Rhodospirillum rubrum); assay: dynamic light scattering; protein at 0.22-1.1 mM in the standard buffer (50 mM HEPES, 200 mM NaCl, pH 7), 20°C, DynaPro Nanostar; proteins modelled as globular; oligomer in solution
[5] = target: RrA(K19A) (Rhodospirillum rubrum); assay: crystal structure; hanging drops, 293 K, protein 19-21 mg/mL in the standard buffer, with or without L-Asp; tetramer as a dimer of tight dimers, in the asymmetric unit or made by crystal symmetry
[6] = target: RrA(K19A) (Rhodospirillum rubrum); assay: dynamic light scattering; protein at 0.22-1.1 mM in the standard buffer (50 mM HEPES, 200 mM NaCl, pH 7), 20°C, DynaPro Nanostar; proteins modelled as globular; oligomer in solution
[7] = target: RrA(K19Q) (Rhodospirillum rubrum); assay: crystal structure; hanging drops, 293 K, protein 19-21 mg/mL in the standard buffer, with or without L-Asp; tetramer as a dimer of tight dimers, in the asymmetric unit or made by crystal symmetry
[8] = target: RrA(K19Q) (Rhodospirillum rubrum); assay: dynamic light scattering; protein at 0.22-1.1 mM in the standard buffer (50 mM HEPES, 200 mM NaCl, pH 7), 20°C, DynaPro Nanostar; proteins modelled as globular; oligomer in solution
[9] = target: RrA(K158M) (Rhodospirillum rubrum); assay: crystal structure; hanging drops, 293 K, protein 19-21 mg/mL in the standard buffer, with or without L-Asp; tetramer as a dimer of tight dimers, in the asymmetric unit or made by crystal symmetry
[10] = target: RrA(K158M) (Rhodospirillum rubrum); assay: dynamic light scattering; protein at 0.22-1.1 mM in the standard buffer (50 mM HEPES, 200 mM NaCl, pH 7), 20°C, DynaPro Nanostar; proteins modelled as globular; oligomer in solution
[11] = target: RrA(Y21A) (Rhodospirillum rubrum); assay: crystal structure; hanging drops, 293 K, protein 19-21 mg/mL in the standard buffer, with or without L-Asp; tetramer as a dimer of tight dimers, in the asymmetric unit or made by crystal symmetry
[12] = target: RrA(Y21A) (Rhodospirillum rubrum); assay: dynamic light scattering; protein at 0.22-1.1 mM in the standard buffer (50 mM HEPES, 200 mM NaCl, pH 7), 20°C, DynaPro Nanostar; proteins modelled as globular; oligomer in solution
[13] = target: RrA(Y21F) (Rhodospirillum rubrum); assay: crystal structure; hanging drops, 293 K, protein 19-21 mg/mL in the standard buffer, with or without L-Asp; tetramer as a dimer of tight dimers, in the asymmetric unit or made by crystal symmetry
[14] = target: RrA(Y21F) (Rhodospirillum rubrum); assay: dynamic light scattering; protein at 0.22-1.1 mM in the standard buffer (50 mM HEPES, 200 mM NaCl, pH 7), 20°C, DynaPro Nanostar; proteins modelled as globular; oligomer in solution
[15] = substrate: NC(=O)C[C@H](N)C(=O)O; assay: ammonia release by Nessler's reagent, A480; Lineweaver-Burk; type: biochemical, Rhodospirillum rubrum; details: PBS pH 7.4, 20 °C, substrate inhibition above 5 mM
[16] = target: the molecule itself; assay: mass photometry; RrA(wt) at 25 nM and 65 nM in the standard buffer (50 mM HEPES, 200 mM NaCl, pH 7), 20°C, Refeyn TwoMP; minor lower-mass peak only in the 25 nM sample
[17] = target: the molecule itself; assay: dynamic light scattering; protein at 0.22-1.1 mM in the standard buffer (50 mM HEPES, 200 mM NaCl, pH 7), 20°C, DynaPro Nanostar; proteins modelled as globular; oligomer in solution

T2 sequence (Q2RMX1 entry or part of it Y21F): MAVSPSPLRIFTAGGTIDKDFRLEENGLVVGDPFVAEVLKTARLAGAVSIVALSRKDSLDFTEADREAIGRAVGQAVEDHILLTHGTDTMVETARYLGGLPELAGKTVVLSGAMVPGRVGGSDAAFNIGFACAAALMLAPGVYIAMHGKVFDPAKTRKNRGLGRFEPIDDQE

T agg [1]: 61.5 °C
Molecule: N[C@@H](CCC(=O)O)C(=O)O [L‐Glu]

T agg [1]: 61.3 °C
Molecule: N[C@@H](CC(=O)O)C(=O)O [L‐Asp]
X-ray crystal structure, 1.90 Å [2]: the ligand was present in three out of four protomers

stoichiometry N [3]: 4 | stoichiometry N [4]: 4
Molecule: RrA(K19E) (enzyme)

stoichiometry N [5]: 4 | stoichiometry N [6]: 4
Molecule: RrA(K19A) (enzyme)

stoichiometry N [7]: 4 | stoichiometry N [8]: 4
Molecule: RrA(K19Q) (enzyme)

stoichiometry N [9]: 4 | stoichiometry N [10]: 4
Molecule: RrA(K158M) (enzyme)

stoichiometry N [11]: 4 | stoichiometry N [12]: 4
Molecule: RrA(Y21A) (enzyme)

stoichiometry N [13]: 4 | stoichiometry N [14]: 4
Molecule: RrA(Y21F) (enzyme)

B1: RrA(wt), short-chain L-asparaginase from Rhodospirillum rubrum (enzyme, UniProt Q2RMX1 1-172, looked up)
chain: T1 sequence (Q2RMX1 1-172)
notes: L-asparaginase RrA of Rhodospirillum rubrum, synthetic gene of GenBank QXG80441.1; protomer of 172 residues (Met1 traced in the structure); the GenBank entry and the PDB entries hold; source: E. coli BL21(DE3) RIPL, pET15b, purified (HisTrap, TEV cleavage, second HisTrap flow-through, Superdex 75); not shown: His6, N-terminal, cleaved
Km [15]: 3.6 ± 0.3 mM | kcat [15]: 58.2 ± 3.0 s⁻¹ | stoichiometry N [16]: 2 | stoichiometry N [17]: 4
